Assay results taken from patent publication US20230357398A1 (MorphoSys, published 2023).

What was measured:
[1] = target: T1, cynomolgus CD3 epsilon, cell surface expressed (cynomolgus monkey PBMCs) (cynomolgus monkey, UniProt Q95LI5 22-198); assay: flow cytometry on cynomolgus monkey PBMCs, IgG titration
T1 construct: On the cells CD3 epsilon is part of the native CD3/TCR complex; also called cyno CD3

[2] = target: T1, cynomolgus CD3 epsilon, cell surface …; assay: flow cytometry (FACS) on cynomolgus PBMCs
Method: (§1) Antibody staining was measured using a multiformat Flow Cytometer (NovoCyte, Agilent Technologies) and analyzed using NovoExpress software (Version 1.5.0). Lymphocytes were identified by morphological gating of forward and side scatters. EC₅₀ values were calculated using 4-parameter non-linear regression analysis in Prism software (GraphPad Software Inc., version 8.4.3).

[3] = target: T2, cyCD3e(1-109)_F-chLys_avi (cynomolgus monkey); assay: BLI (Octet HTX); FabCys captured on Fab-specific sensor, CD3e antigen as analyte; 1:1 model; dissociation approaching assay limit
T2 construct: also called cynomolgus monkey CD3 epsilon antigen
T2 sequence (chain, as listed by the source limits assumed): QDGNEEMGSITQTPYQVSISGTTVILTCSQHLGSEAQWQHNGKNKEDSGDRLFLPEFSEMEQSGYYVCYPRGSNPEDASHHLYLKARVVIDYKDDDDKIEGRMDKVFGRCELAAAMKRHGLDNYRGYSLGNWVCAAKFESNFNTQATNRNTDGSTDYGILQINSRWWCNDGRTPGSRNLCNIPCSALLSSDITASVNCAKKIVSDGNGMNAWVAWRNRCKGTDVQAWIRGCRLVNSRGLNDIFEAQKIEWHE
Method: (§2) Affinity determination by determining kinetic rate constants was performed on an Octet HTX (FortéBIO, Sartorius AG) instrument as described below.
(§3) The different Fab-Cys samples diluted in assay buffer (D-PBS, 0.05% (v/v) PS 20, 0.1% (w/v) BSA) were captured onto Fab-specific BLI sensors with a loading level of approx. 0.5 nm. […] A blank sample with assay buffer was included for referencing, i.e. correcting for dissociation of captured antibody. The association phase was recorded for 300 s, followed by a dissociation phase of 900 s. After each cycle, the biosensors were regenerated two times with 10 mM Glycine HCl pH 1.7 to remove bound ligand/antibody complex, while maintaining the integrity of the capture surface. Between regeneration steps, biosensors were washed with assay buffer for 20 s.
(§4) The sensorgrams were fitted using Octet Data Analysis Software 10.0 (FortéBio, Sartorius AG) to determine kₒₙ and koff rate constants (using a 1:1 binding model), which were used to calculate KD.

[4] = target: T3, human CD3 epsilon, cell surface expressed (human PBMCs / human T cells) (human, UniProt P07766 23-207); assay: flow cytometry (FACS) on human PBMCs
T3 construct: On the cells CD3 epsilon is part of the native CD3/TCR complex; also called CD3 on human PBMCs
T3 sequence (P07766 23-207 limits assumed): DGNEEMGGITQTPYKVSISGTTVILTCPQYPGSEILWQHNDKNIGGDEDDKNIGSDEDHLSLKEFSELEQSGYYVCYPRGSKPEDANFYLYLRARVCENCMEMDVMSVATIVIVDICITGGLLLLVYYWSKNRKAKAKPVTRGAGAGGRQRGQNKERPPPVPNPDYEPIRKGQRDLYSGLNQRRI
Method: as §1

[5] = target: T2, cyCD3e(1-109)_F-chLys_avi; assay: BLI (Octet HTX); FabCys captured on Fab-specific sensor, CD3e antigen as analyte; 1:1 model; less precise, dissociation at assay limit
Method: as §2, §3, §4

[6] = target: T4, Mature human CD3e(1-118)_FLAG-chLys_Avi (human); assay: BLI (Octet HTX); FabCys captured on Fab-specific sensor, CD3e antigen as analyte; 1:1 model
T4 construct: also called human CD3 epsilon antigen
T4 sequence (chain, as listed by the source limits assumed): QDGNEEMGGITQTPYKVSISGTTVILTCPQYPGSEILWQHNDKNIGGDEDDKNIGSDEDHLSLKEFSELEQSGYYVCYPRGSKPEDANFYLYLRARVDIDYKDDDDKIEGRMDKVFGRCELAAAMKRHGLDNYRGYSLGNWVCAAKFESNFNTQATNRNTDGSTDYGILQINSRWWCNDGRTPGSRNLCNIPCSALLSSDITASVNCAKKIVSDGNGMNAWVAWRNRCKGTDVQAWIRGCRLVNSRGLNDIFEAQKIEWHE
Method: as §2, §3, §4

[7] = target: T2, cyCD3e(1-109)_F-chLys_avi; assay: as above
Method: as §2, §3, §4

[8] = target: T2, cyCD3e(1-109)_F-chLys_avi; assay: BLI (Octet HTX); FabCys captured on Fab-specific sensor, CD3e antigen as analyte; 1:1 model; rate set to assay limit
Method: as §2, §3, §4

T1 sequence (Q95LI5 22-198 limits assumed): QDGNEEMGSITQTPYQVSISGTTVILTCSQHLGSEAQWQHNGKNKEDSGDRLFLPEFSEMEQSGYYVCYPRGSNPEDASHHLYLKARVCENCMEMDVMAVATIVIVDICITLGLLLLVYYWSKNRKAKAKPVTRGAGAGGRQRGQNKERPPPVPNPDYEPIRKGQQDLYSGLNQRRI

| Binder | binding result [1] | EC50 [2] | koff [3] | EC50 [4] | Kd [5] | Kd [6] | koff [6] | kon [6] | kon [7] | koff [8] | Kd [7] | koff [7] |
| --- | --- | --- | --- | --- | --- | --- | --- | --- | --- | --- | --- | --- |
| MAB-1 (parental) (antibody, V domains shown, also called MAB-1 IgG; parental antibody MAB-1) VH: EVQLVESGGGLVQPGGSLRLSCAASGFTFSSYWMSWVRQAPGKGLEWVANIKQDGSEKYYVDSVKGRFTISRDNAKNSLYLQMNSLRAEDTAVYYCARGYSAEFAHRSGLDVWGQGTLVTVSS VL: QSVLTQPPSASGTPGQRVTISCSGSSSNIGSNYVYWYQQLPGTAPKLLIYRNNQRPSGVPDRFSGSKSGTSASLAISGLRSEDEADYYCAAWDHHRSGAVFGGGTKLTVLG | binds | – | – | – | – | – | – | – | – | – | – | – |
| MAB-8_h_FabCys (Fab, V domains shown, Tagless disulfide-bridged human FabCys produced in HEK293 cells; also called MAB-8 Fab-Cys) VH: EVQLVESGGGLVQPGGSLRLSCAASGFTFRSHYMTWVRQAPGKGLEWVANIDYEGTRTYYAESVKGRFTISRDNAKNSLYLQMNSLRAEDTAVYYCARGYSAEFAHRSGLDVWGQGTLVTVSS VL: QSVLTQPPSASGTPGQRVTISCSGSSSNIGSNYVYWYQQLPGTAPKLLIYRNNQRPSGVPDRFSGSKSGTSASLAISGLRSEDEADYYCAAWDRHSHGAVFGGGTKLTVLG | – | 3.2 nM | ~5.07e-05 s⁻¹ | 5.5 nM | ~0.1 nM | 0.3 nM | 0.000258 s⁻¹ | 802000 M⁻¹ s⁻¹ | 464000 M⁻¹ s⁻¹ | – | – | – |
| MAB-13_h_FabCys (Fab, V domains shown, Tagless disulfide-bridged human FabCys produced in HEK293 cells; also called MAB-13 Fab-Cys) VH: EVQLVESGGGLVQPGGSLRLSCAASGFTFRSHYMTWVRQAPGKGLEWVANIDYEGTRTYYAESVKGRFTISRDNAKNSLYLQMNSLRAEDTAVYYCARGYSAEFAHRSGLDVWGQGTLVTVSS VL: QSVLTQPPSASGTPGQRVTISCSGSSSNIGINYVYWYQQLPGTAPKLLIYRNNQRPSGVPDRFSGSKSGTSASLAISGLRSEDEADYYCAAWDRHSHGAVFGGGTKLTVLG | – | 5.2 nM | – | 8.3 nM | ≤ 0.1 nM | 0.2 nM | 0.000134 s⁻¹ | 705000 M⁻¹ s⁻¹ | 413000 M⁻¹ s⁻¹ | ≤ 5e-05 s⁻¹ | – | – |
| MAB-12_h_FabCys (Fab, V domains shown, Tagless disulfide-bridged human FabCys produced in HEK293 cells; also called MAB-12 Fab-Cys) VH: EVQLVESGGGLVQPGGSLRLSCAASGFTFRSHYMTWVRQAPGKGLEWVANIDYEGTRTYYAESVKGRFTISRDNAKNSLYLQMNSLRAEDTAVYYCARGYSAEFAHRSGLDVWGQGTLVTVSS VL: QSVLTQPPSASGTPGQRVTISCSGSSSNIGANYVYWYQQLPGTAPKLLIYRNNQRPSGVPDRFSGSKSGTSASLAISGLRSEDEADYYCAAWDRHSHGAVFGGGTKLTVLG | – | 4.1 nM | – | 5.7 nM | ≤ 0.1 nM | 0.3 nM | 0.000188 s⁻¹ | 650000 M⁻¹ s⁻¹ | 445000 M⁻¹ s⁻¹ | ≤ 5e-05 s⁻¹ | – | – |
| MAB-9_h_FabCys (Fab, V domains shown, Tagless disulfide-bridged human FabCys produced in HEK293 cells; also called MAB-9 Fab-Cys) VH: EVQLVESGGGLVQPGGSLRLSCAASGFTFRSHYMTWVRQAPGKGLEWVANIDYEGTRTYYAESVKGRFTISRDNAKNSLYLQMNSLRAEDTAVYYCARGYSAEFAHRSGLDVWGQGTLVTVSS VL: QSVLTQPPSASGTPGQRVTISCSGSSSNIGINYVYWYQQLPGTAPKLLIYRNNIRPSGVPDRFSGSKSGTSASLAISGLRSEDEADYYCAAWDRHSHGAVFGGGTKLTVLG | – | 4.7 nM | – | 7.7 nM | ≤ 0.1 nM | 0.2 nM | 0.000122 s⁻¹ | 724000 M⁻¹ s⁻¹ | 446000 M⁻¹ s⁻¹ | ≤ 5e-05 s⁻¹ | – | – |
| MAB-16_h_FabCys (Fab, V domains shown, Tagless disulfide-bridged human FabCys produced in HEK293 cells; also called MAB-16 Fab-Cys) VH: EVQLVESGGGLVQPGGSLRLSCAASGFTFRSHYMTWVRQAPGKGLEWVANIDYEGTRTYYAESVKGRFTISRDNAKNSLYLQMNSLRAEDTAVYYCARGYSAEFAHRSGLDVWGQGTLVTVSS VL: QSVLTQPPSASGTPGQRVTISCSGSSSNIGSNYVYWYQQLPGTAPKLLIYRNNQRPSGVPDRFSGSKSGTSASLAISGLRSEDEADYYCAGWDRRLHGAVFGGGTKLTVLG | – | 2 nM | – | 3.3 nM | – | 0.3 nM | 0.000272 s⁻¹ | 852000 M⁻¹ s⁻¹ | 478000 M⁻¹ s⁻¹ | – | 0.2 nM | 7.92e-05 s⁻¹ |
| MAB-7_h_FabCys (Fab, V domains shown, Tagless disulfide-bridged human FabCys produced in HEK293 cells; also called MAB-7 Fab-Cys) VH: EVQLVESGGGLVQPGGSLRLSCAASGFTFKSYYMSWVRQAPGKGLEWVANIDYQSQHAYYAESVKGRFTISRDNAKNSLYLQMNSLRAEDTAVYYCARGYSAEFAHRSGLDVWGQGTLVTVSS VL: QSVLTQPPSASGTPGQRVTISCSGSSSNIGSNYVYWYQQLPGTAPKLLIYRNNQRPSGVPDRFSGSKSGTSASLAISGLRSEDEADYYCAAWDRHSHGAVFGGGTKLTVLG | – | 3.7 nM | – | 6.1 nM | – | 1.3 nM | 0.000627 s⁻¹ | 499000 M⁻¹ s⁻¹ | 370000 M⁻¹ s⁻¹ | – | 0.4 nM | 0.000158 s⁻¹ |
